Values quoted from earlier work as cited in publication PMC11346406.

Target: TDP-43 PLD (Homo sapiens) (UniProt Q13148)
Assay: NMR

TDP-43 RRM1-RRM2, sequence (Q13148 102-269): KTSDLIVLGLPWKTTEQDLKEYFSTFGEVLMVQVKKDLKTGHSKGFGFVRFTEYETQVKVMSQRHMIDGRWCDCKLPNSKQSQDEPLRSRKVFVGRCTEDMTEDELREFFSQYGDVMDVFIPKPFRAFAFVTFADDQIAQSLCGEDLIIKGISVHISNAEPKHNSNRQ
TDP-43 PLD (Homo sapiens), sequence (Q13148 274-414): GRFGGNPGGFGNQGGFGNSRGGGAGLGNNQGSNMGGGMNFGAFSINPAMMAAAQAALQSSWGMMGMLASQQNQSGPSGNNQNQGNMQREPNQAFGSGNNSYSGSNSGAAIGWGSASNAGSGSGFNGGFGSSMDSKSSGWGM

Kd: 5 µM
Substance: TDP-43 RRM1-RRM2 (from UniProt Q13148)
